The record followed here is PMC13079917 (Proceedings of the National Academy of Sciences of the …, 2026).

Conditions in all cases: both partners purified
The target in assay [1] is T1, SES-2 (single epitope scaffold 2).
T1 construct: also called SES-2 scaffold; source: FreeStyle 293F cells, transfected, purified (nickel column, Superdex 200 Increase gel filtration)
Kind of assay: SPR. On the technique in general: SPR reads the build-up and loss of mass on a sensor chip optically.

Assay [2] has as its target TES-1 (triple-epitope scaffold 1) (synthetic de novo design (grafts PfCSP …)). Kind of assay: KinExA (kinetic exclusion assay). Background: In KinExA the mixture passes briefly over coated beads that capture the unbound partner.
The target of assay [3] is T2, J3 junctional peptide (Plasmodium falciparum (identical to 3D7 …)).
T2 construct: also called junctional peptide (J3)
T2 chain: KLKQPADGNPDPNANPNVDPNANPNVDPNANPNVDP
Kind of assay: ELISA; plates coated with peptide at 2 ug/mL in PBS; antibodies diluted fourfold from 10 ug/mL; peroxidase secondary antibody. In general terms: ELISA stands for enzyme-linked immunosorbent assay.

B1: L9 Fab (Fab, V domains shown)
VH: QVKLVESGGGVVQPGRSLRLSCEASGFIFSTYGMHWVRQAPGKGLEWVAVIWFDGSNIYYADSVKGRFTISRDNSKNTVFMQMDSLRAEDTAVYYCHRNFYDGSGPFDYWGQGTLVTVSS
VL: DIQMTQSPSTLSASVGDRVTITCRASQFISRWLAWYQQKPGKAPKLLIYKASSLESGVPSRFSGSGSETHFTLTISSLQPDDVATYYCQEYTSYGRTFGQGTKVEIK
notes: source: for crystallization: ExpiCHO cells, purified (HiTrap Protein G HP, size exclusion chromatography)
In turn, B1 yielded a dissociation constant Kd in assay [1] of 29 nM. This counts as double-digit nanomolar.

B2: Monoclonal antibody L9 (human IgG) (antibody, V domains shown)
VH: QVKLVESGGGVVQPGRSLRLSCEASGFIFSTYGMHWVRQAPGKGLEWVAVIWFDGSNIYYADSVKGRFTISRDNSKNTVFMQMDSLRAEDTAVYYCHRNFYDGSGPFDYWGQGTLVTVSS
VL: DIQMTQSPSTLSASVGDRVTITCRASQFISRWLAWYQQKPGKAPKLLIYKASSLESGVPSRFSGSGSETHFTLTISSLQPDDVATYYCQEYTSYGRTFGQGTKVEIK
Molecule B2 had a Kd in assay [2] of 0.085 nM. Further, in assay [3], the binding result is on record as “binds”.

As a reminder, the Kd is the concentration at which binding is half-saturated.
